Laboratory results as given in patent US20250320312A1 (OXITOPE PHARMA B V, published 2025).
Residue numbers refer to the chain shown, from its start. Each block holds one binder with its values, some of them ahead of it.

Key:
Experiment in all cases: scFv ELISA
[1] = target: BSA (UniProt P02769)
[2] = target: Peptide 1: Biotin-…-[Tyr(PC)]-acid
[3] = target: Peptide 5: Biotin-…-[Tyr(PC)]-acid
[4] = target: T1, Peptide 4: Biotin-AGGGGSGGGGSGGGGSAAA-Tyr-acid (N-terminal biotin; C-terminal acid)
T1 construct: Control peptide without PC
T1 peptide: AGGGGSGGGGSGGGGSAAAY
Method in brief: (§1)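 Bound scFv was read as OD450 after HRP–anti-V5 detection, TMB development and HCl stop. PPE with BSA was incubated 1 h at RT on BSA-blocked wells coated overnight at 4° C. with peptide, or on streptavidin wells loaded 1 h with biotinylated PC-peptides at 1 μg/mL.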

[5] = target: T2, Peptide 8: Biotin-AEAAAKEAAAKEAAAKEAAAKAAA-Tyr-acid (N-terminal biotin; C-terminal acid)
T2 construct: Control peptide without PC
T2 peptide: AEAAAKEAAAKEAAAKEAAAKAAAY
Method in brief: as §1

Sequence of BSA (P02769 25-607 limits assumed): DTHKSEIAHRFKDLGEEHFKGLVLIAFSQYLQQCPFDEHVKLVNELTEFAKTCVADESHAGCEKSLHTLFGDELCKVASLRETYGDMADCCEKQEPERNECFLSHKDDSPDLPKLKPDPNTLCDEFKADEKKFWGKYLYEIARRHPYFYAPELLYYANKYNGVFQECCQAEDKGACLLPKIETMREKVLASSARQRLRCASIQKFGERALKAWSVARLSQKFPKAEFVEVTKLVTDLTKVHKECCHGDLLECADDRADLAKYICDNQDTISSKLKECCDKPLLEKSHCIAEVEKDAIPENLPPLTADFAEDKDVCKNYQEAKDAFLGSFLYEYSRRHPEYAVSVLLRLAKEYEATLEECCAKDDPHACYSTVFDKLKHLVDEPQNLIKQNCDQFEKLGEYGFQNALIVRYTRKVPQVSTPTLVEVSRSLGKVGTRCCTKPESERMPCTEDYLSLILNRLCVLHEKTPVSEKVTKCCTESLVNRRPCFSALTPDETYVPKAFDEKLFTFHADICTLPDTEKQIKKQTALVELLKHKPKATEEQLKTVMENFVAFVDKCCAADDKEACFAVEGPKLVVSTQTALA

OD450 [1]: 0.06 OD450 | OD450 [2]: 1.19 OD450 | OD450 [3]: 1.41 OD450 | OD450 [4]: 0.05 OD450 | OD450 [5]: 0.06 OD450
B1: PcOxP_DB03_D10 (scFv, V domains shown)
VH: EVQLLESGGGLVQPGGSLRLSCAASGFTTSDFYMEWVRQAPGKGLEWVAASRNKANGYTTEYADSVKGRFTISRDNSKNTLYLQMNSLRAEDTAVYYCARDYYGSSYWYFDVWGQGTLVTVSS
VL: DIVMTQSPDSLAVSLGERATINCTASESLYSSKHKVHYLAWYQQKPGQPPKLLIYGASGRYIGVPDRFSGSGSGTDFTLTISSLQAEDVAVYYCAQFYSYPLTFGGGTKVEIK
notes: scFv in periplasmic extract

OD450 [1]: 0.06 OD450 | OD450 [2]: 0.72 OD450 | OD450 [3]: 1.29 OD450 | OD450 [4]: 0.04 OD450 | OD450 [5]: 0.04 OD450
B3: PcOxP_DB04_A05 (scFv, V domains shown)
VH: B1 VH with T29F, M34I, G57D
VL: B1 VL with G59N, Y61E
notes: scFv in periplasmic extract

OD450 [1]: 0.06 OD450 | OD450 [2]: 1.05 OD450 | OD450 [3]: 1.56 OD450 | OD450 [4]: 0.05 OD450 | OD450 [5]: 0.04 OD450
B4: PcOxP_DB04_B10 (scFv, V domains shown)
VH: B1 VH with T29D
VL: B1 VL with G59N, Y61P, A95G
notes: scFv in periplasmic extract

OD450 [1]: 0.08 OD450 | OD450 [2]: 0.26 OD450 | OD450 [3]: 0.31 OD450 | OD450 [4]: 0.05 OD450 | OD450 [5]: 0.05 OD450
B10: PcOxP_DB04_B11 (scFv, V domains shown)
VH: B1 VH with F27D, T29F, N53W, G57D
VL: B1 VL with G59N
notes: scFv in periplasmic extract

OD450 [1]: 0.07 OD450 | OD450 [2]: 0.81 OD450 | OD450 [3]: 1.34 OD450 | OD450 [4]: 0.05 OD450 | OD450 [5]: 0.04 OD450
B13: PcOxP_DB04_C11 (scFv, V domains shown)
VH: B1 VH with T29F, F32Y, G57D
VL: B1 VL with G59H, Y61Q
notes: scFv in periplasmic extract

Continued, binder first:

B2: PcOxP_DB04_A11 (scFv, V domains shown)
VH: B1 VH with T29F, F32Y, G57T
VL: B1 VL with L29V, Y30L, V36K, H37N, G59T
notes: scFv in periplasmic extract
OD450 [1]: 0.1 OD450 | OD450 [2]: 0.64 OD450 | OD450 [3]: 1.6 OD450 | OD450 [4]: 0.07 OD450 | OD450 [5]: 0.08 OD450

B5: PcOxP_DB04_A04 (scFv, V domains shown)
VH: B1 VH with T29F, A55W, G57D
VL: B1 VL with E27Q, L29V, H34N, V36K, G59N, S99R
notes: scFv in periplasmic extract
OD450 [1]: 0.11 OD450 | OD450 [2]: 1.09 OD450 | OD450 [3]: 1.9 OD450 | OD450 [4]: 0.08 OD450 | OD450 [5]: 0.08 OD450

B6: PcOxP_DB03_G11 (scFv, V domains shown)
VH: B1 VH with T29F, D31S, F32Y, G57D
VL: B1 VL with T24K, A25S, E27Q, L29V, Y30L, V36K, H37N, G59N
notes: scFv in periplasmic extract
OD450 [1]: 0.1 OD450 | OD450 [2]: 0.26 OD450 | OD450 [3]: 0.72 OD450 | OD450 [4]: 0.05 OD450 | OD450 [5]: 0.05 OD450

B7: PcOxP_DB03_F07 (scFv, V domains shown)
VH: B1 VH with T29Q, A55G, G57S, E61A
VL: B1 VL with S32G, G59N
notes: scFv in periplasmic extract
OD450 [1]: 0.08 OD450 | OD450 [2]: 0.53 OD450 | OD450 [3]: 1.19 OD450 | OD450 [4]: 0.05 OD450 | OD450 [5]: 0.05 OD450

B8: PcOxP_DB03_H10 (scFv, V domains shown)
VH: B1 VH with T29F, S30D, K54E, G57D
VL: B1 VL with S58G, G59N, S99H
notes: scFv in periplasmic extract
OD450 [1]: 0.05 OD450 | OD450 [2]: 0.24 OD450 | OD450 [3]: 0.39 OD450 | OD450 [4]: 0.04 OD450 | OD450 [5]: 0.07 OD450

B9: PcOxP_DB03_H02 (scFv, V domains shown)
VH: B1 VH with T29E, A55Y, G57D
VL: B1 VL with S58Q, G59N
notes: scFv in periplasmic extract
OD450 [1]: 0.05 OD450 | OD450 [2]: 1.07 OD450 | OD450 [3]: 1.69 OD450 | OD450 [4]: 0.05 OD450 | OD450 [5]: 0.04 OD450

B11: PcOxP_DB03_G09 (scFv, V domains shown)
VH: B1 VH with T28S, T29F, A55W, G57D
VL: B1 VL with G59N, Q96S
notes: scFv in periplasmic extract
OD450 [1]: 0.07 OD450 | OD450 [2]: 0.74 OD450 | OD450 [3]: 1.07 OD450 | OD450 [4]: 0.05 OD450 | OD450 [5]: 0.05 OD450

B12: PcOxP_DB04_B12 (scFv, V domains shown)
VH: B1 VH with T29F, F32Y, G57D
VL: B1 VL with G59N, Q96A
notes: scFv in periplasmic extract
OD450 [1]: 0.09 OD450 | OD450 [2]: 0.13 OD450 | OD450 [3]: 0.34 OD450 | OD450 [4]: 0.04 OD450 | OD450 [5]: 0.04 OD450

B14: PcOxP_DB03_D12 (scFv, V domains shown)
VH: B1 VH with T29N, G57D, Y62L
VL: B1 VL with G59N
notes: scFv in periplasmic extract
OD450 [1]: 0.06 OD450 | OD450 [2]: 0.2 OD450 | OD450 [3]: 0.3 OD450 | OD450 [4]: 0.04 OD450 | OD450 [5]: 0.04 OD450

B15: PcOxP_DB04_C09 (scFv, V domains shown)
VH: B1 VH with T29F, D31S, F32Y, G57D, G104L
VL: B1 VL with S32P, S58E, G59N
notes: scFv in periplasmic extract
OD450 [1]: 0.11 OD450 | OD450 [2]: 0.55 OD450 | OD450 [3]: 1.21 OD450 | OD450 [4]: 0.07 OD450 | OD450 [5]: 0.06 OD450
